B1: AB-010681: VH SEQ ID NO: 634, VL SEQ ID NO: 699; L29SY; L92SH relative to AB-010361 (antibody, V domains shown)
VH: QVQLQQWGAGLLKPSETLSLTCAVYGGSFSGYYWSWIRQPPGKGLEWIGEINHRGSINYNNYNPSLKSRVTISVDTSKNQFSLKLSSVTAADTAVYYCAKPLRPHCTNGVCYSGDAFDIWGQGTMVTVAS
VL: SYVLTQPPSVSVAPGQTARITCGGNNIGYKNVHWYQQKPGQAPVLVVYDDSDRPSGIPEQFSGSNSGNTATLTISRVEAGDEADYYCQVWDHSSDHVVFGGGTKLTVL
B2: AB-010664: VH SEQ ID NO: 617, VL SEQ ID NO: 682; L23GR; L92SH relative to AB-010357 (antibody, V domains shown)
VH: QVQLQQWGAGLLKPSETLSLTCAVYGGSFSDYYWSWIRQPPGKGLEWIGEINHRGSINYNNYNPSLKSRVTISVDTSKNQFSLKLSSVTAADTAVYYCAKPLRPHCTNGVCYSGDAFDIWGQGTMVTVAS
VL: SYVLTQPPSVSVAPGQTARITCRGNNIGSKNVHWYQQKPGQAPVLVVYDDSDRPSGIPEQFSGSNSGNTATLTISRVEAGDEADYYCQVWDHSSDHVVFGGGTKLTVL
B3: AB-010667: VH SEQ ID NO: 620, VL SEQ ID NO: 685; L29SY; L92SH relative to AB-010357 (antibody, V domains shown)
VH: QVQLQQWGAGLLKPSETLSLTCAVYGGSFSDYYWSWIRQPPGKGLEWIGEINHRGSINYNNYNPSLKSRVTISVDTSKNQFSLKLSSVTAADTAVYYCAKPLRPHCTNGVCYSGDAFDIWGQGTMVTVAS
VL: SYVLTQPPSVSVAPGQTARITCGGNNIGYKNVHWYQQKPGQAPVLVVYDDSDRPSGIPEQFSGSNSGNTATLTISRVEAGDEADYYCQVWDHSSDHVVFGGGTKLTVL
B4: AB-010669: VH SEQ ID NO: 622, VL SEQ ID NO: 687; L30KM; L92SH relative to AB-010357 (antibody, V domains shown)
VH: QVQLQQWGAGLLKPSETLSLTCAVYGGSFSDYYWSWIRQPPGKGLEWIGEINHRGSINYNNYNPSLKSRVTISVDTSKNQFSLKLSSVTAADTAVYYCAKPLRPHCTNGVCYSGDAFDIWGQGTMVTVAS
VL: SYVLTQPPSVSVAPGQTARITCGGNNIGSMNVHWYQQKPGQAPVLVVYDDSDRPSGIPEQFSGSNSGNTATLTISRVEAGDEADYYCQVWDHSSDHVVFGGGTKLTVL
B5: AB-010670: VH SEQ ID NO: 623, VL SEQ ID NO: 688; H107TI; L92SH relative to AB-010357 (antibody, V domains shown)
VH: QVQLQQWGAGLLKPSETLSLTCAVYGGSFSDYYWSWIRQPPGKGLEWIGEINHRGSINYNNYNPSLKSRVTISVDTSKNQFSLKLSSVTAADTAVYYCAKPLRPHCINGVCYSGDAFDIWGQGTMVTVAS
VL: SYVLTQPPSVSVAPGQTARITCGGNNIGSKNVHWYQQKPGQAPVLVVYDDSDRPSGIPEQFSGSNSGNTATLTISRVEAGDEADYYCQVWDHSSDHVVFGGGTKLTVL
B6: AB-010672: VH SEQ ID NO: 625, VL SEQ ID NO: 690; L93SR relative to AB-010357 (antibody, V domains shown)
VH: QVQLQQWGAGLLKPSETLSLTCAVYGGSFSDYYWSWIRQPPGKGLEWIGEINHRGSINYNNYNPSLKSRVTISVDTSKNQFSLKLSSVTAADTAVYYCAKPLRPHCTNGVCYSGDAFDIWGQGTMVTVAS
VL: SYVLTQPPSVSVAPGQTARITCGGNNIGSKNVHWYQQKPGQAPVLVVYDDSDRPSGIPEQFSGSNSGNTATLTISRVEAGDEADYYCQVWDSRSDHVVFGGGTKLTVL
B7: AB-010673: VH SEQ ID NO: 626, VL SEQ ID NO: 691; L93SE relative to AB-010357 (antibody, V domains shown)
VH: QVQLQQWGAGLLKPSETLSLTCAVYGGSFSDYYWSWIRQPPGKGLEWIGEINHRGSINYNNYNPSLKSRVTISVDTSKNQFSLKLSSVTAADTAVYYCAKPLRPHCTNGVCYSGDAFDIWGQGTMVTVAS
VL: SYVLTQPPSVSVAPGQTARITCGGNNIGSKNVHWYQQKPGQAPVLVVYDDSDRPSGIPEQFSGSNSGNTATLTISRVEAGDEADYYCQVWDSESDHVVFGGGTKLTVL
B8: AB-010674: VH SEQ ID NO: 627, VL SEQ ID NO: 692; L29SY; L93SE relative to AB-010357 (antibody, V domains shown)
VH: QVQLQQWGAGLLKPSETLSLTCAVYGGSFSDYYWSWIRQPPGKGLEWIGEINHRGSINYNNYNPSLKSRVTISVDTSKNQFSLKLSSVTAADTAVYYCAKPLRPHCTNGVCYSGDAFDIWGQGTMVTVAS
VL: SYVLTQPPSVSVAPGQTARITCGGNNIGYKNVHWYQQKPGQAPVLVVYDDSDRPSGIPEQFSGSNSGNTATLTISRVEAGDEADYYCQVWDSESDHVVFGGGTKLTVL
B9: AB-010678: VH SEQ ID NO: 631, VL SEQ ID NO: 696; L23GR; L92SH relative to AB-010361 (antibody, V domains shown)
VH: QVQLQQWGAGLLKPSETLSLTCAVYGGSFSGYYWSWIRQPPGKGLEWIGEINHRGSINYNNYNPSLKSRVTISVDTSKNQFSLKLSSVTAADTAVYYCAKPLRPHCTNGVCYSGDAFDIWGQGTMVTVAS
VL: SYVLTQPPSVSVAPGQTARITCRGNNIGSKNVHWYQQKPGQAPVLVVYDDSDRPSGIPEQFSGSNSGNTATLTISRVEAGDEADYYCQVWDHSSDHVVFGGGTKLTVL
B10: AB-010683: VH SEQ ID NO: 636, VL SEQ ID NO: 701; L30KM; L92SH relative to AB-010361 (antibody, V domains shown)
VH: QVQLQQWGAGLLKPSETLSLTCAVYGGSFSGYYWSWIRQPPGKGLEWIGEINHRGSINYNNYNPSLKSRVTISVDTSKNQFSLKLSSVTAADTAVYYCAKPLRPHCTNGVCYSGDAFDIWGQGTMVTVAS
VL: SYVLTQPPSVSVAPGQTARITCGGNNIGSMNVHWYQQKPGQAPVLVVYDDSDRPSGIPEQFSGSNSGNTATLTISRVEAGDEADYYCQVWDHSSDHVVFGGGTKLTVL
B11: AB-010684: VH SEQ ID NO: 637, VL SEQ ID NO: 702; H107TI; L92SH relative to AB-010361 (antibody, V domains shown)
VH: QVQLQQWGAGLLKPSETLSLTCAVYGGSFSGYYWSWIRQPPGKGLEWIGEINHRGSINYNNYNPSLKSRVTISVDTSKNQFSLKLSSVTAADTAVYYCAKPLRPHCINGVCYSGDAFDIWGQGTMVTVAS
VL: SYVLTQPPSVSVAPGQTARITCGGNNIGSKNVHWYQQKPGQAPVLVVYDDSDRPSGIPEQFSGSNSGNTATLTISRVEAGDEADYYCQVWDHSSDHVVFGGGTKLTVL

Test system: A549 cells
Experiment: ADCC (KILR target cells, NK92 CD16 chimera effector cells)
Type: cell-based, human
Conditions: A549 tumor cells; for ADCC - dAct rel. parent, Trial 1: Trial 1, relative to parent antibody; for ADCC - dAct rel. parent, Trial 2: Trial 2, relative to parent antibody
Protocol: To detect Antibody-dependent cellular cytotoxicity (ADCC), KILR™-transfected target cells were opsonized with different concentrations of the antibody at room temperature for 20 minutes. Following, NK92 cells carrying a mouse extracellular-human intracellular CD16 chimera were added at a 5:1 ratio of effector to target cells. After a 4 h co-culture at 37° C. and 5% CO2, pre-mixed KILR™ detection reagent was added to each well at equal volume and allowed to incubate for 30 min at room temperature in the dark before reading luminescence on a pate reader. Cytotoxicity was calculated after background (spontaneous release) subtraction and expressed as percent of a maximum lysis control.

Row | Molecule | EC50 [pM] | ADCC - dAct rel. parent, Trial 1 [%] | ADCC - dAct rel. parent, Trial 2 [%]
1 | B1 | ~8 | 152.1 | 104.6
2 | B2 | – | 167.7 | –
3 | B3 | – | 154.8 | 108.9
4 | B4 | – | 177.7 | –
5 | B5 | – | 178.2 | –
6 | B6 | – | 162.9 | –
7 | B7 | – | 166.4 | –
8 | B8 | – | 171.2 | 97.2
9 | B9 | – | 154.2 | 93.9
10 | B10 | – | 174.8 | 100.0
11 | B11 | – | 166.6 | 115.4

— patent publication US20250276077A1, “EPHA2 ANTIBODIES” (Immunome, Inc., priority 2022, published 2025)
